Assay results taken from article PMC7230020 (ACS chemical biology, 2020).
Where two headings read alike, the source gives them in different places. One block for each binder: values may come before it. Numbered stars: 1 amine (or outer) side, 2 acyl side, 3 side chain; on linkers, the order of the positions; unused ones are H or OH. Square brackets hold non-standard residues; d marks the D form. Acd = acridonylalanine, O=C([C@H](Cc1ccc2[nH]c3ccccc3c(=O)c2c1)N[*:1])[*:2]

Experiments:
Test in all cases: fluorescence polarisation
[1] = molecular target: T1, activated RecA (RecA*), E. coli RecA polymerised on ssDNA with ATPγS (E. coli, UniProt P0A7G6 1-353)
T1 sequence (looked up): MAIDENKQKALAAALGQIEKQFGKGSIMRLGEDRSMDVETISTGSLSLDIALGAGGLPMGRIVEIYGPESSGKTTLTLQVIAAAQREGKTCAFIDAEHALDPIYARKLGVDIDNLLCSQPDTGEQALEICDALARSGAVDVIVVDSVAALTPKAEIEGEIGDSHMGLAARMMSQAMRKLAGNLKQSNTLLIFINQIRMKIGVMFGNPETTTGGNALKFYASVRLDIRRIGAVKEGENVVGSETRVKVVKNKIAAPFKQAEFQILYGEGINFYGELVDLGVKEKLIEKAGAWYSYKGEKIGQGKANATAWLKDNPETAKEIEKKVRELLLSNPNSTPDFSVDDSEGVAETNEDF

[2] = molecular target: T1, activated RecA (RecA*), E. coli RecA …; remark: listed apart in the source
[3] = molecular target: T1, activated RecA (RecA*), E. coli RecA …; remark: listed apart in the source

binding result [1]: binds
B1: LexA-S119A, unlabeled catalytically inactive full-length LexA(1–202) (natural protein, E. coli, UniProt P0A7C2 1-202, looked up)
chain: MKALTARQQEVFDLIRDHISQTGMPPTRAEIAQRLGFRSPNAAEEHLKALARKGVIEIVSGASRGIRLLQEEEEGLPLVGRVAAGEPLLAQQHIEGHYQVDPSLFKPNADFLLRVSGMAMKDIGIMDGDLLAVHKTQDVRNGQVVVARIDDEVTVKRLKKQGNKVELLPENSEFKPIVVDLRQQSFTIEGLAVGVIRNGDWL

koff [2]: 0.093 s⁻¹
Kd [3]: 790 nM
koff [3]: 0.048 s⁻¹
kon [3]: 61000 M⁻¹ s⁻¹
B2: LexA-S119A-Q161δ, full-length E. coli LexA with acridonylalanine (Acd) at position 161 (natural protein)
chain: MKALTARQQEVFDLIRDHISQTGMPPTRAEIAQRLGFRSPNAAEEHLKALARKGVIEIVSGASRGIRLLQEEEEGLPLVGRVAAGEPLLAQQHIEGHYQVDPSLFKPNADFLLRVSGMAMKDIGIMDGDLLAVHKTQDVRNGQVVVARIDDEVTVKRLKK[Acd]GNKVELLPENSEFKPIVVDLRQQSFTIEGLAVGVIRNGDWL
